In article PMC5270756:

Substrate: c1cc2ccc3cccc4ccc(c1)c2c34
Assay: oxidation kinetics
Type: biochemical, Homo sapiens
Settings: heme; NADPH

B1: P450 1A1 (Homo sapiens) (protein)
chain: MLFPISMSATEFLLASVIFCLVFWVIRASRPQVPKGLKNPPGPWGWPLIGHMLTLGKNPHLALSRMSQQYGDVLQIRIGSTPVVVLSGLDTIRQALVRQGDDFKGRPDLYTFTLISNGQSMSFSPDSGPVWAARRRLAQNGLKSFSIASDPASSTSCYLEEHVSKEAEVLISTLQELMAGPGHFNPYRYVVVSVTNVICAICFGRRYDHNHQELLSLVNLNNNFGEVVGSGNPADFIPILRYLPNPSLNAFKDLNEKFYSFMQKMVKEHYKTFEKGHIRDITDSLIEHCQEKQLDENANVQLSDEKIINIVLDLFGAGFDTVTTAISWSLMYLVMNPRVQRKIQEELDTVIGRSRRPRLSDRSHLPYMEAFILETFRHSSFVPFTIPHSTTRDTSLKGFYIPKGRCVFVNQWQINHDQKLWVNPSEFLPERFLTPDGAIDKVLSEKVIIFGMGKRKCIGETIARWEVFLFLAILLQRVEFSVPLGVKVDMTPIYGLTMKHACCEHFQMQLRS
Km: 1.7 µM
